Results published in publication doi:10.1101/2023.06.15.545071, “POLARIS is a copper-binding peptide required for ethylene signalling control in Arabidopsis” (bioRxiv, 2023).

Molecular target: T1, PLS linked to a C-terminal GFP (p35S::PLS:GFP) (Arabidopsis thaliana, UniProt Q8LLV8 1-36)
T1 construct: POLARIS (PLS) peptide, Arabidopsis thaliana, 36 amino acids; 'the 105-nucleotide PLS gene (without the stop codon)' in pEarlyGate103; source: Nicotiana benthamiana leaves, Agrobacterium infiltration, transient expression, in protein extract; not shown: GFP, C-terminal, kept
T1 sequence (Q8LLV8 whole entry): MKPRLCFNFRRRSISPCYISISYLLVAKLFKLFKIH
Test: co-IP; PLS:GFP and ETR1:HA co-expressed in N. benthamiana leaves, 3 d; anti-GFP beads or anti-HA beads, western blot; extract with 0.5 μM copper sulphate or 2 mM EDTA
Details: partners not purified

B1: ETR1 with a C-terminal HA tag (p35S::ETR1:HA) (receptor, Arabidopsis, UniProt P49333 1-738, looked up)
chain: MEVCNCIEPQWPADELLMKYQYISDFFIAIAYFSIPLELIYFVKKSAVFPYRWVLVQFGAFIVLCGATHLINLWTFTTHSRTVALVMTTAKVLTAVVSCATALMLVHIIPDLLSVKTRELFLKNKAAELDREMGLIRTQEETGRHVRMLTHEIRSTLDRHTILKTTLVELGRTLALEECALWMPTRTGLELQLSYTLRHQHPVEYTVPIQLPVINQVFGTSRAVKISPNSPVARLRPVSGKYMLGEVVAVRVPLLHLSNFQINDWPELSTKRYALMVLMLPSDSARQWHVHELELVEVVADQVAVALSHAAILEESMRARDLLMEQNVALDLARREAETAIRARNDFLAVMNHEMRTPMHAIIALSSLLQETELTPEQRLMVETILKSSNLLATLMNDVLDLSRLEDGSLQLELGTFNLHTLFREVLNLIKPIAVVKKLPITLNLAPDLPEFVVGDEKRLMQIILNIVGNAVKFSKQGSISVTALVTKSDTRAADFFVVPTGSHFYLRVKVKDSGAGINPQDIPKIFTKFAQTQSLATRSSGGSGLGLAISKRFVNLMEGNIWIESDGLGKGCTAIFDVKLGISERSNESKQSGIPKVPAIPRHSNFTGLKVLVMDENGVSRMVTKGLLVHLGCEVTTVSSNEECLRVVSHEHKVVFMDVCMPGVENYQIALRIHEKFTKQRHQRPLLVALSGNTDKSTKEKCMSFGLDGVLLKPVSLDNIRDVLSDLLEPRVLYEGM
notes: 'the ETR1 cDNA' in pEarlyGate301; source: Nicotiana benthamiana leaves, Agrobacterium infiltration, transient expression, in protein extract; not shown: HA, C-terminal, kept
With B1 the “fold more co-precipitated with copper ions than with 2 mM EDTA” value was about 3 fold.
